Test results from paper PMC4575080, “Biophysical Studies on BEX3, the p75^NTR-Associated Cell Death Executor, Reveal a High-Order Oligomer with Partially Folded Regions” (PLoS ONE, 2015).

B1: Brain Expressed X-linked protein 3 (BEX3) (natural protein, UniProt Q9WTZ9 1-124, looked up)
chain: MANVHQENEEMEQPLQNGQEDRPVGGGEGHQPAANNNNNNHNHNHNHHRRGQARRLAPNFRWAIPNRQMNDGLGGDGDDMEMFMEEMREIRRKLRELQLRNCLRILMGELSNHHDHHDEFCLMP
notes: BEX3 (NADE), cDNA encoding 'the mature BEX3' in pET21d; UniProt Q9WTZ9 is printed in the introduction for BEX3; High-order oligomer in native buffer; also called NADE; p75NTR-associated cell death executor
B2: death domain of p75NTR (amino acids 326 to 417) (domain or fragment, UniProt Q9Z0W1 326-417, looked up)
chain: TASGQALKGDGNLYSSLPLTKREEVEKLLNGDTWRHLAGELGYQPEHIDSFTHEACPVRALLASWGAQDSATLDALLAALRRIQRADIVESL
notes: neurotrophin receptor p75 (p75NTR), death domain, amino acids 326 to 417; UniProt Q9Z0W1 is printed in the introduction for p75NTR; For some experiments the His-tag was removed with TEV protease; also called p75NTR DD; His-p75NTR DD

Legend:
[1] = molecular target: the molecule itself; experiment: SDS-PAGE (SDS-resistant oligomer); refolded BEX3 on SDS-PAGE, before and after addition of 4 or 7 M urea to the sample loading buffer
[2] = molecular target: B1; experiment: SPR; p75NTR DD (13 uM) amine-coupled to a CM5 chip (4,000 RU), Biacore X; BEX3 0.2-0.8 uM injected in Buffer A (25 mM MES pH 7.0, 150 mM NaCl, 6 mM beta-ME), 10 uL/min; global fit; apparent Kd = koff/kon; conditions: both partners purified

| Binder | stoichiometry N [1] | Kd [2] |
| --- | --- | --- |
| B1 | 2 |  |
| B2 |  | 550 nM |
